Measured values published in the RNAGym collection of RNA variant scans (doi:10.7554/elife.90254).

B1: OR4K15 (parent)
chain: GUUAACGGUCAUAGGCCAUGGAAACUAGGAGCACCAUUUCGCUGCCAGUGAAGAAAUGAACAAAGAAAAUCUGGGCCAGGCAGGCAUCAAAAGAAAUAGUCUUGCGCUCAACCAGAAAGUCUGUAAUCAUUUUAAGGGUA

Variants of: B1
Experiment: self-cleavage, relative activity (ratio to wild type); higher = more cleavage; in vitro, sequencing; the parent is a self-cleaving ribozyme
In the case of GUUAACGGUCAUAGGCCAUGGAAACUAGGAGCACCGUUUCGCUGCCAGUGAAGAAAUGAACAAAGAAAAUCUGGGCCAGGCAGGCAUCAAAAGAAAUAGUCUUGCGCUCAACCAGAAUGUCUGUAAUCAUUUUAAGGGUA [A36G A118U], the self-cleavage is reported as 0.73. In the case of GUUAACGGUCAUAGGCCAUGGAGACUAGGAGCACCAUUUCGCUGCCAGUGAAGAAAUGAACAAAGAAAAUCUGGGCCAGGCAGGCAUCAAAAGAAAAAGUCUUGCGCUCAACCAGAAAGUCUGUAAUCAUUUUAAGGGUA [A23G U97A], the self-cleavage is reported as 1.48. In the case of GUUAACGGUCAUAGGCCAUGGAAACUAGGAGCACCAUUUCGCUGCCCGCGAAGAAAUGAACAAAGAAAAUCUGGGCCAGGCAGGCAUCAAAAGAAAUAGUCUUGCGCUCAACCAGAAAGUCUGUAAUCAUUUUAAGGGUA [A47C U49C], the self-cleavage is reported as 1.24. With GUUAACGGUCAUAGGCCAUGGAAACUAGGAGCACCAUUUCGCUGCCGGUGAAGAAAUGAACAAAGAAAAUCUGGGCCAGGCAGGCAUCAAAAGAAAUAGUCUUGAGCUCAACCAGAAAGUCUGUAAUCAUUUUAAGGGUA [A47G C105A] the self-cleavage was 0.07. GUUAACGGUCAUAGGCCAUGGAAACUAGGAGCACCAUUUCGCUGCCAGUGAAGAAAUGUACAAAGAAAACCUGGGCCAGGCAGGCAUCAAAAGAAAUAGUCUUGCGCUCAACCAGAAAGUCUGUAAUCAUUUUAAGGGUA [A59U U70C] gave a self-cleavage of 0.53. Work on GUUAACGGUCAUAGGCCAUGGAAACUAGGAGCACCAUUUCGCUGCCAGUGAAGAAAUGAACAAAGAGAAUCUGGGCCAGGCAGGCAUCAAAAGAAAUAGUCUUGCGCUCAACCAGAACGUCUGUAAUCAUUUUAAGGGUA [A67G A118C] yielded a self-cleavage of 0.76. In the case of GUUAACGGUCAUAGGCCAUGGAAACUAGGAGCACCAUUUCGCUGCCUGUGAAGAAAUGAACAAAGAAAAUCUGGGCCAGGCAGGCAUCAAAAGAAAUAGUCUUGCGCUCAACCAGAAAGUCUGUAAUCAUUUUACGGGUA [A47U A135C], the self-cleavage is reported as 1.32. For GUUAACGGUCAUAGGCCAUGGAAACAAGGAGCACCAUUUCGCUGCCAGUGAAGAAAUGAACAAAGAAAAUCUGGGCCAGGCAGGCAUCAAAAGAAAUAGUCUUGCGCUCAACCAGAAAGUCUGUAAUCGUUUUAAGGGUA [U26A A129G], the self-cleavage was 1.36. Work on GUUAACGGUCAUAGGCCAUGGAAACUAGGAGCACCAUUUCGCUGCCAGUGAAGAAAUGAACAAAGAAAAUCUGGGCUAGGCAGGCAUCAAAAGAAAUAGCCUUGCGCUCAACCAGAAAGUCUGUAAUCAUUUUAAGGGUA [C77U U100C] yielded a self-cleavage of 2.13. GUUAACGGUCAUAGGCCAUGGAAACUAGGAGCACCAUUUCGCUGCCAGUGAAGAAAUGAACAAAGAAAAUCUGGGCCAGGCAGGCAUCAAAAGAAAUAGUCUUGCGCCCAACCAGAAAGUCUGUAAUCAUUAUAAGGGUA [U108C U132A] showed a self-cleavage of 0.02. GUUAACGGUCAUAGGCCAUGGAAACUAGGAGCGCCAUUUCGCUGCCAGUGAAGAAAUGAACAAAGAAAAUCUGGGCCAGGCAGGCAUCAAAAGAAAUAGUCUUGCGCUCAACCAGAAAGUCUGUAAUCAUUAUAAGGGUA [A33G U132A] showed a self-cleavage of 0.51. With GUUAACGGUCAUAGACCAUGGAAACUAGGAGCACCAUUUCGCUGCCAGUGAAGAAAUGAACAAAGAAAAUCUGGGCCAGGCAGGCAUCAAAAGAAAUAGUCUUGCGCUCAACCGGAAAGUCUGUAAUCAUUUUAAGGGUA [G15A A114G] the self-cleavage was 0.06. Variant GUUAACGGUCAUAGGCCAUGGAAACUAGGAGCACCAUUUCGCUGCCAGUGAAGAGAUGAACAAAGAAAAUCUGGGCCAGGCAGGCAUCAAAAGAAAUAGUCUUGCGCUCAACCAGUAAGUCUGUAAUCAUUUUAAGGGUA [A55G A116U] has a self-cleavage of 0.27. With GUUAACGGUCAUAGGCCAUGGAAACUAGGAGCACCAUUUCGCUGCCAGUGGAGAAAUGAACAAAGAAAAUCUGGGCCAGGCAGGCAUCAAAAGAAAUAGCCUUGCGCUCAACCAGAAAGUCUGUAAUCAUUUUAAGGGUA [A51G U100C] the self-cleavage was 1.87. Variant GUUAACGGUCAUAGGCCAUGGAAACUAGGGGCACCAUUUCGCUGCCAGUGAAGAAAUGAACAAAGAAAAUCUGGGCCAGGCAGGCAUCAAAAGAAAUAGUCUUGCGCUCAACCAGGAAGUCUGUAAUCAUUUUAAGGGUA [A30G A116G] has a self-cleavage of 0.66. Variant GUUAACGGUCAUAUGCCAUGGAAACUAGGAGCACCAUUUCGCUGCCAGUGAAGAAAUGAACAAAGAAAAUCUGGGCCAGGCAGGCAUCAAAAGAAAUAGUCUUGUGCUCAACCAGAAAGUCUGUAAUCAUUUUAAGGGUA [G14U C105U] has a self-cleavage of 0.07. For GUUAACGGUCUUAGGCCAAGGAAACUAGGAGCACCAUUUCGCUGCCAGUGAAGAAAUGAACAAAGAAAAUCUGGGCCAGGCAGGCAUCAAAAGAAAUAGUCUUGCGCUCAACCAGAAAGUCUGUAAUCAUUUUAAGGGUA [A11U U19A], the self-cleavage was 1.38. Variant GUUAACGGUCAUAGGCCAUGGAAACUAGGAGCACCAUUUCGCUGCCAGUGAAGAAAAGAACAAAGAAAAUCUGGGCCAGGCAGGCAUCAAAAGAAAUAGUCUUGCGCUCAACCAGAAAGUCUGUAAUCAUUUUAAAGGUA [U57A G136A] has a self-cleavage of 1.37. Work on GUUAACGGUCAUAGGCCAUGGAAACUAGGAGCACCAUUUCGCUGCCGGUGAAGAAAUGAACAAAGUAAAUCUGGGCCAGGCAGGCAUCAAAAGAAAUAGUCUUGCGCUCAACCAGAAAGUCUGUAAUCAUUUUAAGGGUA [A47G A66U] yielded a self-cleavage of 1.11. Work on GUUAACGGUCAUAGGCCAUGGAAACUAGGGGCACCAUUUCGCUGCCAGUGAAGAAAUGAACAAAGAAAAUCUGGGCCAGGCAGGCAUCAAAAGAAAUAGUCUUGCGCUCAACCAGAAAGUCUGUAGUCAUUUUAAGGGUA [A30G A126G] yielded a self-cleavage of 1.23. For GUUAACGGUCAUAGGCCAUGGAAACUAGGAGCACCAUUUCGCUGCCAGCGAAGAAAUGAACAAAGAAAAUCUGGGCCAGGCAGGCAUCAAAAGAAAUAGUCUUGCGCUCAACCAGAAAGUCUGUAAUCAAUUUAAGGGUA [U49C U130A], the self-cleavage was 0.28.
